Assay [1] has as its target T1, regulatory-associated protein of mTOR (RAPTOR) (UniProt Q8N122 1-1335).
T1 construct: RAPTOR, regulatory-associated protein of mTOR; purified protein; Construct, host and tags are in SI Appendix, Material and Methods; In the cryo-EM rows RAPTOR stood as a subunit of mTORC1; source: purified
The experiment in a line: fluorescence polarisation; fluorescence anisotropy; purified RAPTOR with N-terminally FITC-labeled synthetic LST2 TOS peptides; N = 3. Particulars: both partners purified. For orientation: In fluorescence polarisation assays a small probe gives low polarisation when free and higher when bound to something large.

Assay [2] has as its target T1, regulatory-associated protein of mTOR …. The experiment in a line: co-IP; coimmunoprecipitation with purified RAPTOR and purified full-length LST2 (WT or F401A); blot quantified, N = 3. The conditions noted are these: both partners purified.

Where no end group is shown, it is not given here. The star is where a group is joined. FITC = O=C1OC2(c3ccc(O)cc3Oc3cc(O)ccc32)c2ccc(NC(=S)*)cc21

T1 sequence (Q8N122 whole entry): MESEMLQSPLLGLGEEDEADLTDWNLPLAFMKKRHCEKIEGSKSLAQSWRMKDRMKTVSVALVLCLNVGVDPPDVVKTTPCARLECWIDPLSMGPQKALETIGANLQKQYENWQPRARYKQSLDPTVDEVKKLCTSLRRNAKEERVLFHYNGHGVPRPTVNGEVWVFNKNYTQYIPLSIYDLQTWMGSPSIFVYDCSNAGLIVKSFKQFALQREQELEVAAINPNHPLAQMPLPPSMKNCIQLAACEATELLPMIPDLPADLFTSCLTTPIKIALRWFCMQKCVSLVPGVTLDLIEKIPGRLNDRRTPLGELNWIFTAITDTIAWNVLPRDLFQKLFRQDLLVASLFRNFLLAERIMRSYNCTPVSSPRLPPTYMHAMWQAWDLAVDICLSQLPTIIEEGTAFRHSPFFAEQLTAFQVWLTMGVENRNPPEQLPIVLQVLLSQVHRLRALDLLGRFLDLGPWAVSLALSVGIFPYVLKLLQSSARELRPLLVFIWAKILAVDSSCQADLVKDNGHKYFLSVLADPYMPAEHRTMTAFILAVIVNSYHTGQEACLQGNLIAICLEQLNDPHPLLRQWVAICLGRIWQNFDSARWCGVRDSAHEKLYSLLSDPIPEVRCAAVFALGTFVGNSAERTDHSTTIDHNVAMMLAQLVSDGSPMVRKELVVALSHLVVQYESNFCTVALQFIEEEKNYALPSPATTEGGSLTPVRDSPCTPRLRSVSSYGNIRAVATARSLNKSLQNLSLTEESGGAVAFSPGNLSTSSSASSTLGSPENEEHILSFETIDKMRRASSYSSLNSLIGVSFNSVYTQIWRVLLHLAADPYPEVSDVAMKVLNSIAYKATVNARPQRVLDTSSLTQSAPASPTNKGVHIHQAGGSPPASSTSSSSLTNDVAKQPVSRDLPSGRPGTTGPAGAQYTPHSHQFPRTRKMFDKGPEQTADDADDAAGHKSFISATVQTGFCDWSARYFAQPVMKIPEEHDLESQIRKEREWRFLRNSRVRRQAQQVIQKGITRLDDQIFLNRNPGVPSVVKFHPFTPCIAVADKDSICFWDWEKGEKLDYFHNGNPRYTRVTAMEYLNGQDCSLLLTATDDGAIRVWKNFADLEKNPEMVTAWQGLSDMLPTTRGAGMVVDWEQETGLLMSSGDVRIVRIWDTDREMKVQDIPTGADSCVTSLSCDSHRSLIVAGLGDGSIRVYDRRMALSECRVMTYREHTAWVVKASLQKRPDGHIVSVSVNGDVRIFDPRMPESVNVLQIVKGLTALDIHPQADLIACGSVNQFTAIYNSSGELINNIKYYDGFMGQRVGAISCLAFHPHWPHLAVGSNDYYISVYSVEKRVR

B1: FITC-labeled LST2 TOS peptide including flanking residues (amino acids 395 to 407) (peptide, UniProt Q9HCC9 395-407, looked up)
peptide: {FITC}-DEEERVFFMDDVE
notes: also called LST2 TOS peptide WT; FITC-labeled peptide; source: synthetic peptide
In general, Kd refers to the equilibrium constant for the complex coming apart. High values mean a looser complex, low ones a tighter complex. In assay [1], B1 returned a Kd of 330 nM.

B2: full-length LST2 F401A (natural protein, UniProt Q9HCC9 1-887, looked up)
chain: MMNRFRKWLYKPKRSDPQLLARFYYADEELNQVAAELDSLDGRKDPQRCTLLVSQFRSCQDNVLNIINQIMDECIPQDRAPRDFCVKFPEEIRHDNLAGQLWFGAECLAAGSIIMNRELESMAMRPLAKELTRSLEDVRGALRDQALRDLNTYTEKMREALRHFDVLFAEFELSYVSAMVPVKSPREYYVQQEVIVLFCETVERALDFGYLTQDMIDDYEPALMFSIPRLAIVCGLVVYADGPLNLDRKVEDMSELFRPFHTLLRKIRDLLQTLTEEELHTLERNLCISQDVEFPIRADVQGPAALAPALSAPLPPEGPLSAKAKDPDAELACSMQYDDQELEQLSRMVHRAGDEMSSLLSPPIACQSPAHRPGAEGSPGGEASPGRPRLRSGSDEEERVAFMDDVEGTAEALARPESPAGPFGWAGSTWADPQEKGQGGPGGAAGISLPASEKEEDLSNNNLEAEGTDGASLAGTSSCSCLDSRLHLDGWEVGADDAETAEMIAHRTGGMKLSATVIFNPKSPTSLDSAVATQEAASEPVAEGMDGGPHKLSTGATNCLLHSCVCCGSCGDSREDVVERLREKCSPGGVIGASYAAGLAKASDRAPERQEEAPPPSEDASNGREPKAPTSDKCLPHTSGSQVDTASGLQGEAGVAGQQEPEARELHAGSPSAHEAPQALSGSSSSTAGSCSSDKMGPEAAPAATHAAPQATREKIRSRFHGSHDLIHRLFVCISGVADQLQTNYASDLRSILKTLFEVMATKPETDDKEKLRKVTQTLRSAALEDCALCQETLSSSELAAKTRDGDFEDPPEWVPDEACGFCTACKAPFTVIRRKHHCRSCGKIFCSRCSSHSAPLPRYGQVKPVRVCTHCYMFHVTPFYSDKAGL
notes: LST2 (ZFYVE28), full length, with F401A in the TOS motif; Tags and host in SI Appendix; also called TOS-deficient LST2-F401A; source: purified
For B2, the “fold reduction of binding against LST2-WT” value in assay [2] came to 9 fold.

These data come from article PMC11348030, “mTORC1 phosphorylates and stabilizes LST2 to negatively regulate EGFR” (Proceedings of the National Academy of Sciences of the …, 2024).
